This is an account of results in PMC10729762, “CsrA selectively modulates sRNA-mRNA regulator outcomes”.

In series [1] the target is T1, CsrA (UniProt P69913 1-61). Description: EMSA; 3 or 6 uM CsrA; 10 nM denatured RNA, 0-6 uM CsrA, 0-3 uM Hfq; 1X binding buffer (10 mM Tris-HCl pH 7.5, 10 mM MgCl2, 100 mM KCl) plus CsrA dilution buffer, 11% glycerol, 20 mM. To be noted: protein: recombinant, chain copies: 2.
Series [2] concerns the target T1, CsrA. Description: EMSA; 6 uM CsrA; 10 nM denatured RNA, 0-6 uM CsrA, 0-3 uM Hfq; 1X binding buffer (10 mM Tris-HCl pH 7.5, 10 mM MgCl2, 100 mM KCl) plus CsrA dilution buffer, 11% glycerol, 20 mM. To be noted: protein: recombinant; chain copies: 2; label: internal 32P-UTP.
The target in series [3] is T1, CsrA. Description: EMSA; up to 6 uM CsrA; 10 nM denatured RNA, 0-6 uM CsrA, 0-3 uM Hfq; 1X binding buffer (10 mM Tris-HCl pH 7.5, 10 mM MgCl2, 100 mM KCl) plus CsrA dilution buffer, 11% glycerol, 20 mM. To be noted: protein: recombinant; chain copies: 2; label: internal 32P-UTP.

T1 sequence (P69913 whole entry): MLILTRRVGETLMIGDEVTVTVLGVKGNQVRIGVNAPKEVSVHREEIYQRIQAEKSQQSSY

B1: SgrS (structured_RNA)
RNA: GAUGAAGCAAGGGGGUGCCCCAUGCGUCAGUUUUAUCAGCACUAUUUUACCGCGACAGCGAAGUUGUGCUGGUUGCGUUGGUUAAGCGUCCCACAACGAUUAACCAUGCUUGAAGGACUGAUGCAGUGGGAUGACCGCAAUUCUGAAAGUUGACUUGCCUGCAUCAUGUGUGACUGAGUAUUGGUGUAAAAUCACCCGCCAGCAGAUUAUACCUGCUGGUUUUUUUU
On to B1, for which the binding result in the series with CsrA [1] (label: internal 32P-UTP) is “binds”.

B2: DsrA (structured_RNA)
RNA: AACACAUCAGAUUUCCUGGUGUAACGAAUUUUUUAAGUGCUUCUUGCUUAAGCAAGUUUCAUCCCGACCCCCUCAGGGUCGGGAUUU
On to B2, for which the binding result with CsrA [1] (label: internal 32P-UTP) is reported as “binds”.

B3: SibD (structured_RNA)
RNA: ACAAGGGUGAGGGAGGAUUUCUCCCCCCUCUGAUUGGCUGUUAAUAAGCUGCGAAACUUACGAGUAACAACACAAUCAGUAUGAUGACGAGCUUCAUCAUAACCCUUUCCUUCUGUAAGGCCCCCUUCUUCGGGAGGGGCUUU
Turning to B3, the binding result in the series with CsrA [2] is on record as “binds”.

B4: Spot 42 (spf) (structured_RNA)
RNA: GUAGGGUACAGAGGUAAGAUGUUCUAUCUUUCAGACCUUUUACUUCACGUAAUCGGAUUUGGCUGAAUAUUUUAGCCGCCCCAGUCAGUAAUGACUGGGGCGUUUUUUA
For B4, the binding result with CsrA [1] (label: internal 32P-UTP (EMSA)) is recorded as “binds”.

B5: GcvB (structured_RNA)
RNA: ACUUCCUGAGCCGGAACGAAAAGUUUUAUCGGAAUGCGUGUUCUGGUGAACUUUUGGCUUACGGUUGUGAUGUUGUGUUGUUGUGUUUGCAAUUGGUCUGCGAUUCAGACCAUGGUAGCAAAGCUACCUUUUUUCACUUCCUGUACAUUUACCCUGUCUGUCCAUAGUGAUUAAUGUAGCACCGCCUAAUUGCGGUGCUUUUUUUU
For B5, the binding result in the series with CsrA [3] is on record as “no binding”.

B6: MicL-S (structured_RNA)
RNA: AUUUUUACCGUUGCAUCAUGUCGCCCAAUAUGAUGCUUGCUCGUACCAGGCCCCUGCAAUUUCAACAGGGGCCUUUUUUU
For B6, the binding result in the series with CsrA [2] is “binds”.

B7: GadY (structured_RNA)
RNA: ACUGAGAGCACAAAGUUUCCCGUGCCAACAGGGAGUGUUAUAACGGUUUAUUAGUCUGGAGACGGCAGACUAUCCUCUUCCCGGUCCCCUAUGCCGGGUUUUUUU
For B7, the binding result with CsrA [1] (label: internal 32P-UTP) is recorded as “binds”.

B8: SibA (structured_RNA)
RNA: GUGAGGGUUAGGGAGAGGUUUCCCCCUCCCCCUGGUGUUCUUAGUAAGCCUGGAAGCUAAUCACUAAGAGUAUCACCAGUAUGAUGACGUGCUUCAUCAUAACCCUUUCCUUAUUAAAAGCCCUCUUCUCCGGGAGAGGCUUU
For B8, the binding result with CsrA [1] (label: internal 32P-UTP) is “binds”.

B9: SibC (structured_RNA)
RNA: GUAAGGGUAAGGGAGGAUUGCUCCUCCCCUGAGACUGACUGUUAAUAAGCGCUGAAACUUAUGAGUAACAGUACAAUCAGUAUGAUGACAAGUCGCAUCAUAACCCUUCUCCUUCAAGCCCUCGCUUCGGUGAGGGCUUU
For B9, the binding result with CsrA [3] is on record as “no binding”.

B10: GlmZ (structured_RNA)
RNA: GUAGAUGCUCAUUCCAUCUCUUAUGUUCGCCUUAGUGCCUCAUAAACUCCGGAAUGACGCAGAGCCGUUUACGGUGCUUAUCGUCCACUGACAGAUGUCGCUUAUGCCUCAUCAGACACCAUGGACACAACGUUGAGUGAAGCACCCACUUGUUGUCAUACAGACCUGUUUUAACGCCUGCUCCGUAAUAAGAGCAGGCGUUUUUUU
Consider B10, for which the binding result with CsrA [2] is on record as “binds”.

B11: ChiX (structured_RNA)
RNA: ACACCGUCGCUUAAAGUGACGGCAUAAUAAUAAAAAAAUGAAAUUCCUCUUUGACGGGCCAAUAGCGAUAUUGGCCAUUUUUUU
Regarding B11, the binding result with CsrA [1] (label: internal 32P-UTP) was “binds”.

B12: McaS (structured_RNA)
RNA: ACCGGCGCAGAGGAGACAAUGCCGGAUUUAAGACGCGGAUGCACUGCUGUGUGUACUGUAGAGUCUGGCGGAUGUCGACAGACUCUAUUUUUU
With B12, in the series with CsrA [1] (label: internal 32P-UTP), the binding result is “binds”.
